# Columns and labels:
# [1] = substrate: N[C@@H](Cc1ccc(O)c(O)c1)C(=O)O; assay: Kinetic analysis of tyrosinase (Lineweaver-Burk plots); assay type: biochemical, Bacillus megaterium; conditions: other: compound as TyrBm natural substrate; pH 7.4; 40.0 °C
# Procedure: (§1) Tyrosinase inhibitory activity was determined spectrophotometrically in 96-well plates with a final volume of 200 μl. First, 50 mM PBS buffer pH 7.4 and 0.01 mM CuSO4 were mixed with 6 μg ml^−1 of purified enzyme. Then, the mixture was incubated at 40 °C for 2 minutes. Finally, various concentrations of inhibitor were mixed with 1.2 mM L-tyrosine or 2 mM L-dopa and were added to the pre-incubated mixture. […] The reaction mixture was then monitored for L-dopachrome formation (ε = 3600M^−1 cm^−1) by measuring the absorbance at 475 nm. Specific activity was calculated as the ratio of the conversion rate and the total protein content as determined by the Bradford analysis method (Bio-Rad, Israel). All measurements were performed in seven replicates.
# (§2) The inhibition kinetics module of Sigma Plot 13.0 software was used (Systat Software, Inc., Richmond, CA, USA). All measurements were performed in 5-replicates.
# [2] = substrate: N[C@@H](Cc1ccc(O)cc1)C(=O)O; assay: as above; assay type: biochemical, Bacillus megaterium; conditions: other: compound as TyrBm natural substrate; pH 7.4; 40.0 °C
# Procedure: as §1, §2
protein,measurement,setting,value
"TyrBm (tyrosinase from Bacillus megaterium) (Priestia megaterium) (protein, made in house; host or cells: Escherichia coli BL21) MSNKYRVRKNVLHLTDTEKRDFVRTVLILKEKGIYDRYIAWHGAAGKFHTPPGSDRNAAHMSSAFLPWHREYLLRFERDLQSINPEVTLPYWEWETDAQMQDPSQSQIWSADFMGGNGNPIKDFIVDTGPFAAGRWTTIDEQGNPSGGLKRNFGATKEAPTLPTRDDVLNALKITQYDTPPWDMTSQNSFRNQLEGFINGPQLHNRVHRWVGGQMGVVPTAPNDPVFFLHHANVDRIWAVWQIIHRNQNYQPMKNGPFGQNFRDPMYPWNTTPEDVMNHRKLGYVYDIELRKSKRSS",Km,[1],240 ± 20 µM
same,Vmax,[1],30.3 µmol/min/mg
same,kcat,[1],17.8 s⁻¹
same,kcat/Km,[1],74200 M⁻¹ s⁻¹
same,Km,[2],82 ± 6 µM
same,Vmax,[2],3.62 µmol/min/mg
same,kcat,[2],2.1 s⁻¹
same,kcat/Km,[2],25600 M⁻¹ s⁻¹
